The values below are quoted from earlier work in publication PMC7674454.

One may read the Kd as the free concentration of one partner at which half of the binding sites on the other are occupied at equilibrium, for simple one-to-one binding.

In the series the target is calbindin D9k EF2 EF-hand 2 (Bos taurus) (UniProt P02633). Description: SPR. (Surface plasmon resonance follows binding to a sensor surface in real time, without labels.)

Turning to “calbindin D9k EF1 EF-hand 1 (from UniProt P02633)”, the Kd is 3 pM.
